Measured values reported in patent US20240270846A1 (published 2024).

Biological target: T1, CD3 epsilon homodimer protein (UniProt P07766 23-126)
T1 construct: also called CD3 (CD3 epsilon)
Assay: SPR (Biacore T200), CD3e homodimer on CM4 chip, antibody as analyte; KD ratio vs unaltered GLS3000;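 note: CD3 epsilon homodimer amine-coupled to the sensor surface, antibodies injected as analyte at 25 °C with HBS-EP+ running buffer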
Description: An appropriate amount of CD3 epsilon homodimer protein was immobilized onto Sensor chip CM4 (GE Healthcare Japan Corp.) by the amine coupling method. Then, the antibody having an appropriate concentration was injected thereto as an analyte and allowed to interact with the CD3 epsilon homodimer protein on the sensor chip. Then, the sensor chip was regenerated by the injection of 10 mmol/L glycine-HCl (pH 1.5). The assay was conducted at 25 degrees C., and HBS-EP+(GE Healthcare Japan Corp.) was used as a running buffer. […] Each parameter was calculated using Biacore T200 Evaluation Software (GE Healthcare Japan Corp.).
Specifically, when the amount of the GLS3000-containing antibody bound was defined as X and the amount of the L chain one-amino acid altered form bound was defined as Y, a value of Z (ratio of amounts bound)=Y/X was used.

T1 sequence (P07766 23-126): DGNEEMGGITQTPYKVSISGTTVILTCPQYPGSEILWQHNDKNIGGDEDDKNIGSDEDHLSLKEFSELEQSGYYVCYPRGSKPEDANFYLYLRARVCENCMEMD

Row | Binder | KD ratio to GLS3000 [ratio]
1 | CE115HA000/GLS3000 N53T one-arm antibody (antibody, human IgG1, kappa, L234A L235A, N297A, name in Kabat numbering, one-arm IgG1) heavy: QVQLVESGGGVVQPGRSLRLSCAASGFTFSNAWMHWVRQAPGKGLEWVAQIKAKSNNYATYYAESVKGRFTISRDDSKNSLYLQMNSLKTEDTAVYYCRYVHYGAYYGVDAWGQGTTVTVSSASTKGPSVFPLAPSSKSTSGGTAALGCLVKDYFPEPVTVSWNSGALTSGVHTFPAVLQSSGLYSLSSVVTVPSSSLGTQTYICNVNHKPSNTKVDKKVEPKSCDKTHTCPPCPAPEAAGGPSVFLFPPKPKDTLMISRTPEVTCVVVDVSHEDPEVKFNWYVDGVEVHNAKTKPREEQYASTYRVVSVLTVLHQDWLNGKEYKCKVSNKALPAPIEKTISKAKGQPREPQVYTLPPSRCELTKNQVSLSCAVKGFYPSDIAVEWESNGQPENNYKTTPPVLDSDGSFFLVSKLTVDKSRWQQGNVFSCSVMHEALHNHYTQKSLSLSPDYKDDDDK EPKSSDKTHTCPPCPAPELLGGPSVFLFPPKPKDTLMISRTPEVTCVVVDVSHEDPEVKFNWYVDGVEVHNAKTKPREEQYNSTYRVVSVLTVLHQDWLNGKEYKCKVSNKALPAPIEKTISKAKGQPREPQVCTLPPSRDELTKNQVSLWCLVKGFYPSDIAVEWESNGQPENNYKTTPPVLDSDGSFFLYSKLTVDKSRWQQGNVFSCSVMHEALHNRYTQKSLSLSP light: DIVMTQSPLSLPVTPGEPASISCRSSQSLVHSNRNTYLHWYQQKPGQAPRLLIYKVSTRFSGVPDRFSGSGSGTDFTLKISRVEAEDVGVYYCGQGTQVPYTFGQGTKLEIKRTVAAPSVFIFPPSDEQLKSGTASVVCLLNNFYPREAKVQWKVDNALQSGNSQESVTEQDSKDSTYSLSSTLTLSKADYEKHKVYACEVTHQGLSSPVTKSFNRGEC | 2.68
2 | CE115HA000/GLS3000 N53V one-arm antibody (antibody, human IgG1, kappa, L234A L235A, N297A, name in Kabat numbering, one-arm IgG1) heavy: QVQLVESGGGVVQPGRSLRLSCAASGFTFSNAWMHWVRQAPGKGLEWVAQIKAKSNNYATYYAESVKGRFTISRDDSKNSLYLQMNSLKTEDTAVYYCRYVHYGAYYGVDAWGQGTTVTVSSASTKGPSVFPLAPSSKSTSGGTAALGCLVKDYFPEPVTVSWNSGALTSGVHTFPAVLQSSGLYSLSSVVTVPSSSLGTQTYICNVNHKPSNTKVDKKVEPKSCDKTHTCPPCPAPEAAGGPSVFLFPPKPKDTLMISRTPEVTCVVVDVSHEDPEVKFNWYVDGVEVHNAKTKPREEQYASTYRVVSVLTVLHQDWLNGKEYKCKVSNKALPAPIEKTISKAKGQPREPQVYTLPPSRCELTKNQVSLSCAVKGFYPSDIAVEWESNGQPENNYKTTPPVLDSDGSFFLVSKLTVDKSRWQQGNVFSCSVMHEALHNHYTQKSLSLSPDYKDDDDK EPKSSDKTHTCPPCPAPELLGGPSVFLFPPKPKDTLMISRTPEVTCVVVDVSHEDPEVKFNWYVDGVEVHNAKTKPREEQYNSTYRVVSVLTVLHQDWLNGKEYKCKVSNKALPAPIEKTISKAKGQPREPQVCTLPPSRDELTKNQVSLWCLVKGFYPSDIAVEWESNGQPENNYKTTPPVLDSDGSFFLYSKLTVDKSRWQQGNVFSCSVMHEALHNRYTQKSLSLSP light: DIVMTQSPLSLPVTPGEPASISCRSSQSLVHSNRNTYLHWYQQKPGQAPRLLIYKVSVRFSGVPDRFSGSGSGTDFTLKISRVEAEDVGVYYCGQGTQVPYTFGQGTKLEIKRTVAAPSVFIFPPSDEQLKSGTASVVCLLNNFYPREAKVQWKVDNALQSGNSQESVTEQDSKDSTYSLSSTLTLSKADYEKHKVYACEVTHQGLSSPVTKSFNRGEC | 2.14
3 | CE115HA000/GLS3000 N53W one-arm antibody (antibody, human IgG1, kappa, L234A L235A, N297A, name in Kabat numbering, one-arm IgG1) heavy: QVQLVESGGGVVQPGRSLRLSCAASGFTFSNAWMHWVRQAPGKGLEWVAQIKAKSNNYATYYAESVKGRFTISRDDSKNSLYLQMNSLKTEDTAVYYCRYVHYGAYYGVDAWGQGTTVTVSSASTKGPSVFPLAPSSKSTSGGTAALGCLVKDYFPEPVTVSWNSGALTSGVHTFPAVLQSSGLYSLSSVVTVPSSSLGTQTYICNVNHKPSNTKVDKKVEPKSCDKTHTCPPCPAPEAAGGPSVFLFPPKPKDTLMISRTPEVTCVVVDVSHEDPEVKFNWYVDGVEVHNAKTKPREEQYASTYRVVSVLTVLHQDWLNGKEYKCKVSNKALPAPIEKTISKAKGQPREPQVYTLPPSRCELTKNQVSLSCAVKGFYPSDIAVEWESNGQPENNYKTTPPVLDSDGSFFLVSKLTVDKSRWQQGNVFSCSVMHEALHNHYTQKSLSLSPDYKDDDDK EPKSSDKTHTCPPCPAPELLGGPSVFLFPPKPKDTLMISRTPEVTCVVVDVSHEDPEVKFNWYVDGVEVHNAKTKPREEQYNSTYRVVSVLTVLHQDWLNGKEYKCKVSNKALPAPIEKTISKAKGQPREPQVCTLPPSRDELTKNQVSLWCLVKGFYPSDIAVEWESNGQPENNYKTTPPVLDSDGSFFLYSKLTVDKSRWQQGNVFSCSVMHEALHNRYTQKSLSLSP light: DIVMTQSPLSLPVTPGEPASISCRSSQSLVHSNRNTYLHWYQQKPGQAPRLLIYKVSWRFSGVPDRFSGSGSGTDFTLKISRVEAEDVGVYYCGQGTQVPYTFGQGTKLEIKRTVAAPSVFIFPPSDEQLKSGTASVVCLLNNFYPREAKVQWKVDNALQSGNSQESVTEQDSKDSTYSLSSTLTLSKADYEKHKVYACEVTHQGLSSPVTKSFNRGEC | 1.01
4 | CE115HA000/GLS3000 N53Y one-arm antibody (antibody, human IgG1, kappa, L234A L235A, N297A, name in Kabat numbering, one-arm IgG1) heavy: QVQLVESGGGVVQPGRSLRLSCAASGFTFSNAWMHWVRQAPGKGLEWVAQIKAKSNNYATYYAESVKGRFTISRDDSKNSLYLQMNSLKTEDTAVYYCRYVHYGAYYGVDAWGQGTTVTVSSASTKGPSVFPLAPSSKSTSGGTAALGCLVKDYFPEPVTVSWNSGALTSGVHTFPAVLQSSGLYSLSSVVTVPSSSLGTQTYICNVNHKPSNTKVDKKVEPKSCDKTHTCPPCPAPEAAGGPSVFLFPPKPKDTLMISRTPEVTCVVVDVSHEDPEVKFNWYVDGVEVHNAKTKPREEQYASTYRVVSVLTVLHQDWLNGKEYKCKVSNKALPAPIEKTISKAKGQPREPQVYTLPPSRCELTKNQVSLSCAVKGFYPSDIAVEWESNGQPENNYKTTPPVLDSDGSFFLVSKLTVDKSRWQQGNVFSCSVMHEALHNHYTQKSLSLSPDYKDDDDK EPKSSDKTHTCPPCPAPELLGGPSVFLFPPKPKDTLMISRTPEVTCVVVDVSHEDPEVKFNWYVDGVEVHNAKTKPREEQYNSTYRVVSVLTVLHQDWLNGKEYKCKVSNKALPAPIEKTISKAKGQPREPQVCTLPPSRDELTKNQVSLWCLVKGFYPSDIAVEWESNGQPENNYKTTPPVLDSDGSFFLYSKLTVDKSRWQQGNVFSCSVMHEALHNRYTQKSLSLSP light: DIVMTQSPLSLPVTPGEPASISCRSSQSLVHSNRNTYLHWYQQKPGQAPRLLIYKVSYRFSGVPDRFSGSGSGTDFTLKISRVEAEDVGVYYCGQGTQVPYTFGQGTKLEIKRTVAAPSVFIFPPSDEQLKSGTASVVCLLNNFYPREAKVQWKVDNALQSGNSQESVTEQDSKDSTYSLSSTLTLSKADYEKHKVYACEVTHQGLSSPVTKSFNRGEC | 0.99
5 | CE115HA000/GLS3000 P95A one-arm antibody (antibody, human IgG1, kappa, L234A L235A, N297A, name in Kabat numbering, one-arm IgG1) heavy: QVQLVESGGGVVQPGRSLRLSCAASGFTFSNAWMHWVRQAPGKGLEWVAQIKAKSNNYATYYAESVKGRFTISRDDSKNSLYLQMNSLKTEDTAVYYCRYVHYGAYYGVDAWGQGTTVTVSSASTKGPSVFPLAPSSKSTSGGTAALGCLVKDYFPEPVTVSWNSGALTSGVHTFPAVLQSSGLYSLSSVVTVPSSSLGTQTYICNVNHKPSNTKVDKKVEPKSCDKTHTCPPCPAPEAAGGPSVFLFPPKPKDTLMISRTPEVTCVVVDVSHEDPEVKFNWYVDGVEVHNAKTKPREEQYASTYRVVSVLTVLHQDWLNGKEYKCKVSNKALPAPIEKTISKAKGQPREPQVYTLPPSRCELTKNQVSLSCAVKGFYPSDIAVEWESNGQPENNYKTTPPVLDSDGSFFLVSKLTVDKSRWQQGNVFSCSVMHEALHNHYTQKSLSLSPDYKDDDDK EPKSSDKTHTCPPCPAPELLGGPSVFLFPPKPKDTLMISRTPEVTCVVVDVSHEDPEVKFNWYVDGVEVHNAKTKPREEQYNSTYRVVSVLTVLHQDWLNGKEYKCKVSNKALPAPIEKTISKAKGQPREPQVCTLPPSRDELTKNQVSLWCLVKGFYPSDIAVEWESNGQPENNYKTTPPVLDSDGSFFLYSKLTVDKSRWQQGNVFSCSVMHEALHNRYTQKSLSLSP light: DIVMTQSPLSLPVTPGEPASISCRSSQSLVHSNRNTYLHWYQQKPGQAPRLLIYKVSNRFSGVPDRFSGSGSGTDFTLKISRVEAEDVGVYYCGQGTQVAYTFGQGTKLEIKRTVAAPSVFIFPPSDEQLKSGTASVVCLLNNFYPREAKVQWKVDNALQSGNSQESVTEQDSKDSTYSLSSTLTLSKADYEKHKVYACEVTHQGLSSPVTKSFNRGEC | 0.87
